According to patent US20240400693A1 (Chugai, published 2024):

How the values were obtained:
Assay in all cases: cell-based or functional assay
[1] = molecular target: HLA-DQ2.5 on IHW09023 cells loaded with BC hordein peptide (human; barley)
[2] = molecular target: HLA-DQ2.5 on IHW09023 cells loaded with gamma 1 gliadin peptide (human; wheat)
[3] = molecular target: HLA-DQ2.5 on IHW09023 cells loaded with gamma 4d gliadin peptide (human; wheat)
[4] = molecular target: HLA-DQ2.5 on IHW09023 cells loaded with gamma 3 gliadin peptide (human; wheat)
[5] = molecular target: HLA-DQ2.5 on IHW09023 cells loaded with gamma 2 gliadin peptide (human; wheat)
[6] = molecular target: HLA-DQ2.5 on IHW09023 cells loaded with gamma 4a gliadin peptide (human; wheat)
[7] = molecular target: HLA-DQ2.5 on IHW09023 cells loaded with omega1/2 gliadin peptide (human; wheat)
[8] = molecular target: HLA-DQ2.5 on IHW09023 cells loaded with 33mer gliadin peptide (human; wheat)
[9] = molecular target: HLA-DQ2.2 on HBBB2.2 cells loaded with 33mer gliadin peptide (human; wheat)

Row | IC50 (ng/mL), BC hordein TCR, 250 nM BC hordein [1] [ng/mL] | IC50 (ng/mL), γ1 gliadin TCR, 250 nM γ1 gliadin [2] [ng/mL] | IC50 (ng/mL), γ4d gliadin TCR, 100 µM γ4d gliadin [3] [ng/mL] | IC50 (ng/mL), γ3 gliadin TCR, 100 µM γ3 gliadin [4] [ng/mL] | IC50 (ng/mL), γ2 gliadin TCR, 250 nM γ2 gliadin [5] [ng/mL] | IC50 (ng/mL), γ4a gliadin TCR, 25 µM γ4a gliadin [6] [ng/mL] | IC50 (ng/mL), ω1 gliadin TCR, 25 µM ω1/2 gliadin [7] [ng/mL] | IC50 (ng/mL), ω2 gliadin TCR, 250 nM ω1/2 gliadin [7] [ng/mL] | IC50 (ng/mL), α1a gliadin TCR, 250 nM 33mer gliadin [8] [ng/mL] | IC50 (ng/mL), α1b gliadin TCR, 250 nM 33mer gliadin [8] [ng/mL] | IC50 (ng/mL), α2 gliadin TCR, 250 nM 33mer gliadin [8] [ng/mL] | IC50 (ng/ml)_HLA-DQ2.2, α1a gliadin TCR, 25 µM 33mer gliadin [9] [ng/mL] | IC50 (ng/ml)_HLA-DQ2.2, α2 gliadin TCR, 1 µM 33mer gliadin [9] [ng/mL] | Binder
1 | 11.4 | 1.9 | 9.23 | 1.21 | 785 | 1250 | 1.96 | 0.2 | 0.6 | 1.81 | 0.33 | 1.16 | 6.51 | DQN0344H1013/L0620//DQN0385H1521/L0605-F6.v2 (bispecific antibody) heavy 1: QVQLVESGGGVVQPGRSLRLSCAASGFTFSSAYWMVWVRQAPGQGLEWMGAVYGGSDTTYYAKWTEGRFTISRDTSKNTLYLQMNSLRAEDTAVYYCAREPLNYYYYGELNVWGQGTLVTVSSASTKGPSVFPLAPSSKSTSGGTAALGCLVKDYFPEPVTVSWNSGALTSGVHTFPAVLKSSGLYSLSSVVTVPSSSLGTQTYICNVNHKPSNTKVDKRVEPKSCDKTHTCPPCPAPELRRGPSVFLFPPKPKDTLMISRTPEVTCVVVDVSHEDPEVKFNWYVDGVEVHNAKTKPREEQYNSTYRVVSVLTVLHQDWLNGKEYKCKVSNKALPAPIEKTISKAKGQPREPQVYTLPPSREEMTKNQVSLTCLVKGFYPSDIAVEWESNGQPENNYKTTPPVLDSDGSFFLYSKLTVDKSRWQEGNVFSCSVLHEALHAHYTREELSLSP light 1: DIQMTQSPSSLSASVGDRVTITCQATENIYSGLAWYQQKPGKAPKLLIYYVSTLAYGIPARFSGSGSGTDFTLTISSLEPEDFAVYYCQTYEDVSAVTFGQGTKVEIKRTVAAPSVFIFPPSDEQLKSGTAEVVCLLNNFYPREAKVQWKVDNALQSGNSEESVTEQDSKDSTYSLSSTLTLSKADYEKHKVYACEVTHQGLSSPVTKSFNRGEC heavy 2: QVQLVESGGGVVQPGRSLRLSCAASGFTFESWYFMSWVRQAPGKGLEWVASIDTGSGSIDYAEWVEGRFTISRDNSKNTLYLQMNSLRAEDTAVYYCARDIGIDYNFWGPGTLVTVSSASTKGPSVFPLAPSSKSTSGGTAALGCLVEDYFPEPVTVSWNSGALTSGVHTFPAVLESSGLYSLSSVVTVPSSSLGTKTYICNVNHKPSNTKVDKRVEPKSCDKTHTCPPCPAPELRRGPSVFLFPPKPKDTLMISRTPEVTCVVVDVSHEDPEVKFNWYVDGVEVHNAKTKPREEQYNSTYRVVSVLTVLHQDWLNGKEYKCKVSNKALPAPIEKTISKAKGQPREPQVYTLPPSRKEMTKNQVSLTCLVKGFYPSDIAVEWESNGQPENNYKTTPPVLDSDGSFFLYSKLTVDKSRWQQGNVFSCSVLHEALHAHYTRKELSLSP light 2: DIQMTQSPSSLSASVGDRVTITCQTTQSISSYLNWYQQKPGQPPKLLIYYASTKAEGIPARFSGSGSGTDFTLTISSLEPEDFAVYYCHYGISKVSFGQGTKVEIKRTVAAPSVFIFPPSDEQLKSGTAKVVCLLNNFYPREAKVQWKVDNALQSGNSKESVTEQDSKDSTYSLSSTLTLSKADYEKHKVYACEVTHQGLSSPVTKSFNRGEC
2 | 25.2 | 5.85 | 27.8 | 4.84 | 280 | 1980 | 3.19 | 0.49 | 0.63 | 1.42 | 0.53 | 1.62 | 4.6 | DQN0344H1013/L0620//DQN0385H1270/L0681-F6.v2 (bispecific antibody) heavy 1: QVQLVESGGGVVQPGRSLRLSCAASGFTFSSAYWMVWVRQAPGQGLEWMGAVYGGSDTTYYAKWTEGRFTISRDTSKNTLYLQMNSLRAEDTAVYYCAREPLNYYYYGELNVWGQGTLVTVSSASTKGPSVFPLAPSSKSTSGGTAALGCLVKDYFPEPVTVSWNSGALTSGVHTFPAVLKSSGLYSLSSVVTVPSSSLGTQTYICNVNHKPSNTKVDKRVEPKSCDKTHTCPPCPAPELRRGPSVFLFPPKPKDTLMISRTPEVTCVVVDVSHEDPEVKFNWYVDGVEVHNAKTKPREEQYNSTYRVVSVLTVLHQDWLNGKEYKCKVSNKALPAPIEKTISKAKGQPREPQVYTLPPSREEMTKNQVSLTCLVKGFYPSDIAVEWESNGQPENNYKTTPPVLDSDGSFFLYSKLTVDKSRWQEGNVFSCSVLHEALHAHYTREELSLSP light 1: DIQMTQSPSSLSASVGDRVTITCQATENIYSGLAWYQQKPGKAPKLLIYYVSTLAYGIPARFSGSGSGTDFTLTISSLEPEDFAVYYCQTYEDVSAVTFGQGTKVEIKRTVAAPSVFIFPPSDEQLKSGTAEVVCLLNNFYPREAKVQWKVDNALQSGNSEESVTEQDSKDSTYSLSSTLTLSKADYEKHKVYACEVTHQGLSSPVTKSFNRGEC heavy 2: QVQLVESGGGVVQPGRSLRLSCAASGFTFSEWYFMSWVRQAPGKGLEWVASIDTGSGSIDYAEWVEGRFTISRDNSKNTLYLQMNSLRAEDTAVYYCARDIGIDYNFWGPGTLVTVSSASTKGPSVFPLAPSSKSTSGGTAALGCLVEDYFPEPVTVSWNSGALTSGVHTFPAVLESSGLYSLSSVVTVPSSSLGTKTYICNVNHKPSNTKVDKRVEPKSCDKTHTCPPCPAPELRRGPSVFLFPPKPKDTLMISRTPEVTCVVVDVSHEDPEVKFNWYVDGVEVHNAKTKPREEQYNSTYRVVSVLTVLHQDWLNGKEYKCKVSNKALPAPIEKTISKAKGQPREPQVYTLPPSRKEMTKNQVSLTCLVKGFYPSDIAVEWESNGQPENNYKTTPPVLDSDGSFFLYSKLTVDKSRWQQGNVFSCSVLHEALHAHYTRKELSLSP light 2: DIQMTQSPSSLSASVGDRVTITCQTTQSISSYLNWYQQKPGQPPKLLIYYASTKAEGIPARFSGSGLGTDFTLTISSLEPEDFAVYYCHYGISKVSFGQGTKVEIKRTVAAPSVFIFPPSDEQLKSGTAKVVCLLNNFYPREAKVQWKVDNALQSGNSKESVTEQDSKDSTYSLSSTLTLSKADYEKHKVYACEVTHQGLSSPVTKSFNRGEC
